“Also recorded” adds a separate entry of the source.
Legend:
[1] = Brain tissue plasminogen level after tail vein injection in FAD mice (ELISA)
TDP-43 [2] = assay: TDP-43 in brain tissue of mice injected with TDP-43 in the brain and LPS (Western blot); format: in vivo; conditions: C57BL/6J mice, hippocampal TDP-43 injection + LPS, 50 mg/kg tail vein for 3 days, vs vehicle group, P<0.05
Method: Nine C57BL/6J female mice aged 6-7 weeks were selected and weighed before modeling. After weighing, all mice were randomly divided into two groups: 3 mice in blank control group, and 6 mice in model group. After grouping, mice in the sham operation group and model group were anesthetized with intraperitoneal injection of tribromoethanol at a dose of 20 mL/kg. Model mice were located in the hippocampus according to the mouse stereotaxic atlas (based on the coordinates of the bregma: AP-2.54 mm, ML±2 mm, DV-2.4 mm), and each mouse was slowly microinjected bilaterally. Mice in the sham operation group were only drilled at the coordinate location point without injection. The mice in the model group were injected with TDP-43 solution at an injection rate of 0.5 μL/min and an injection volume of 3 μL/side. After the injection, the syringe stayed for 5 minutes and then slowly withdrew. Three days after the brain localization injection, all mice were weighed, and the mice in the model group were intraperitoneally injected with 5 mg/kg LPS solution according to their body weight. Then the mice in the model group were randomly divided into two groups: 3 mice in the plasminogen group and 3 mice in the vehicle group. […] The vehicle and plasminogen were administered continuously for 3 days. […] After homogenization, TDP-43 was detected by western blot.

TDP-43 [3] = molecular target: TDP-43 (Mus musculus, UniProt Q921F2); assay: TDP-43 in cytoplasm and nucleus of NSC34 cells treated with okadaic acid (Western blot); format: cell-based; set-up: host or cells: NSC34 cells; conditions: okadaic acid 2.5 ng/uL 24 h, plasminogen 0.5 mg/mL 24 hours, vs vehicle group
TDP-43 (Mus musculus, UniProt Q921F2), sequence (Q921F2 whole entry): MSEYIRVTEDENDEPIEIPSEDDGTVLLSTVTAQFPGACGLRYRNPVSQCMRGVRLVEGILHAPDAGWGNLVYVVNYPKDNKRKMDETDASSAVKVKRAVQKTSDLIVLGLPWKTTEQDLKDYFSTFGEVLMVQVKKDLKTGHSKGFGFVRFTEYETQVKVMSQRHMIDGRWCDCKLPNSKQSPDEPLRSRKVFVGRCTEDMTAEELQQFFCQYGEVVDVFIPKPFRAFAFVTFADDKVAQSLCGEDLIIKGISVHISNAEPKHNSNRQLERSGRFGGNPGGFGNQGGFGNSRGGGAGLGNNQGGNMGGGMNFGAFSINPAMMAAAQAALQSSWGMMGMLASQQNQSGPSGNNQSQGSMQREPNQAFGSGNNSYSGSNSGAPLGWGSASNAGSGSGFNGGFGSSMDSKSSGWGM
Method: 10^6 NSC34 cells (Otwo Biotech, HTX1846) were inoculated in a 9 cm^2 culture dish, and cultured in DMEM medium (Gibco, 11965092) containing 10% fetal bovine serum (EVERY GREEN, 11011-8611). The cells were placed in a carbon dioxide incubator for culture at 37.0° C. and 5% CO2. After the cells grew for 48 hours and reached about 80%-90% abundance, the medium was changed, and subsequent experiments were performed. […] After adding plasminogen for 24 hours, the cells were harvested. The culture supernatant was sucked off, washing with 1×PBS, digesting with 1 mL of 0.25% pancreatic enzyme for 2-3 minutes, then stopping digestion with 5-6 mL of DMEM complete medium when the cells were obviously detached. The cells were slowly blown, and the suspension was collected into a centrifuge tube, centrifuging at 1500 rpm for 5 min to remove the supernatant, resuspending with pre-cooled 1×PBS, and counting the cells. 200 μL of plasma protein extraction reagent (the volume of a pellet of 2×10^6 cells is about 20 μL or 40 mg) (Solarbio, R0050) was added for every 20 μL of cell pellet. The cell pellet was completely dispersed into a single-cell suspension by pipette blow or high-speed vortex for 15 seconds, then ice-bathing for 10 minutes, vortexing vigorously at maximum speed for 10 seconds and centrifuging at 12,000-16,000 g for 10 minutes at 4° C. […]

[4] = Plasmin activity in brain homogenate of FAD mice (enzyme substrate kinetic method); format: in vivo, mouse; conditions: 2 hours
Method: 85 μL/well of seven different concentrations of standard solution, blank, and sample were added to the ELISA plate (manufacturer: NUNC, catalog number: 446469) in sequence, and then 15 μL of 20 mM S-2251 solution (manufacturer: Chromogenix, catalog number: 82033239) was added to each well to incubate at 37° C. Starting from 0 min of reaction, the A405 absorbance value was read in a multifunctional microplate reader every 5 min until the reaction time was 90 min. All reactions were fitted with a straight line by time and absorbance, and the slope of the straight line was the reaction rate of the standard/sample (ΔA405/min). Finally, the potency value of the standard substance and ΔA405/min were used to create a standard curve to calculate the potency of the measured samples. The plasmin activity per unit of total protein in each sample was calculated.

B1: plasminogen: human plasminogen purified from human donor plasma, in which human Lys-plasminogen and Glu-plasminogen are >98% (protein)
chain: KVYLSECKTGNGKNYRGTMSKTKNGITCQKWSSTSPHRPRFSPATHPSEGLEENYCRNPDNDPQGPWCYTTDPEKRYDYCDILECEEECMHCSGENYDGKISKTMSGLECQAWDSQSPHAHGYIPSKFPNKNLKKNYCRNPDRELRPWCFTTDPNKRWELCDIPRCTTPPPSSGPTYQCLKGTGENYRGNVAVTVSGHTCQHWSAQTPHTHNRTPENFPCKNLDENYCRNPDGKRAPWCHTTNSQVRWEYCKIPSCDSSPVSTEQLAPTAPPELTPVVQDCYHGDGQSYRGTSSTTTTGKKCQSWSSMTPHRHQKTPENYPNAGLTMNYCRNPDADKGPWCFTTDPSVRWEYCNLKKCSGTEASVVAPPPVVLLPDVETPSEEDCMFGNGKGYRGKRATTVTGTPCQDWAAQEPHRHSIFTPETNPRAGLEKNYCRNPDGDVGGPWCYTTNPRKLYDYCDVPQCAAPSFDCGKPQVEPKKCPGRVVGGCVAHPHSWPWQVSLRTRFGMHFCGGTLISPEWVLTAAHCLEKSPRPSSYKVILGAHQEVNLEPHVQEIEVSRLFLEPTRKDIALLKLSSPAVITDKVIPACLPSPNYVVADRTECFITGWGETQGTFGAGLLKEAQLPVIENKVCNRYEFLNGRVQSTELCAGHLAGGTDSCQGDSGGPLVCFEKDKYILQGVTSWGLGCARPNKPGVYVRVSRFVTWIEGVMRNN
ratio of plasminogen in brain tissue to plasminogen in blood ([1]; 6 mg/kg plasminogen group, 2 hours): 3.59%
ratio of plasminogen in brain tissue to plasminogen in blood ([1]; 6 mg/kg plasminogen group, 6 hours): 4.23%
ratio of plasminogen in brain tissue to plasminogen in blood ([1]; 50 mg/kg plasminogen group, 2 hours): 2.49%
ratio of plasminogen in brain tissue to plasminogen in blood ([1]; 50 mg/kg plasminogen group, 6 hours): 2.31%
ratio of plasminogen in brain tissue to plasminogen in blood ([1]; 50 mg/kg plasminogen group, 12 hours): 3.32%
plasminogen level in brain tissue, 50 mg/kg group compared with 6 mg/kg group ([1]; tail vein): significantly higher
time within which plasminogen is almost completely metabolized (brain tissue) ([1]; tail vein 50 mg/kg and 6 mg/kg): 12 to 24 h
plasminogen level in brain tissue ([1]; tail vein injection of 6 mg/kg): increase significantly
plasminogen level in brain tissue ([1]; tail vein injection of 50 mg/kg): increase significantly
amount of TDP-43 monomer in brain tissue (TDP-43 [2]): significantly lower
amount of low molecular weight TDP-43 in brain tissue (TDP-43 [2]): significantly lower
level of TDP-43 in the cytoplasm (TDP-43 [3]): significantly lower; also recorded: almost significantly or significantly lower
level of TDP-43 in the nucleus (TDP-43 [3]): significantly lower; also recorded: almost significantly or significantly lower
plasmin activity level in brain tissue ([4]; tail vein injection of 6 mg/kg, 6 mg/kg): increases significantly
plasmin activity level in brain tissue ([4]; tail vein injection of 50 mg/kg, 50 mg/kg): increases significantly
level in brain tissue, 50 mg/kg group compared with 6 mg/kg group ([4]; tail vein): significantly higher

Reference: patent US20260166131A1, “METHOD FOR PROMOTING PATHOLOGICAL TDP-43 PROTEIN DEGRADATION, AND DRUG” (TALENGEN INTERNATIONAL LIMITED, priority 2022, published 2026)
